The results in this text go back to paper PMC6834283, “Duplicate divergence of two bacterial small heat shock proteins reduces the demand for Hsp70 in refolding of substrates” (PLoS Genetics, 2019).

The target of test [1] is T1, firefly luciferase, thermally denatured (firefly, UniProt P08659 1-550 = luciferase).
T1 construct: firefly luciferase (Promega), used as the aggregating substrate; Denatured at 44°C for 10 min in the presence of the sHsps; The partner is the unfolded, aggregating protein, not the native enzyme; source: bought: Promega
T1 sequence (P08659 whole entry): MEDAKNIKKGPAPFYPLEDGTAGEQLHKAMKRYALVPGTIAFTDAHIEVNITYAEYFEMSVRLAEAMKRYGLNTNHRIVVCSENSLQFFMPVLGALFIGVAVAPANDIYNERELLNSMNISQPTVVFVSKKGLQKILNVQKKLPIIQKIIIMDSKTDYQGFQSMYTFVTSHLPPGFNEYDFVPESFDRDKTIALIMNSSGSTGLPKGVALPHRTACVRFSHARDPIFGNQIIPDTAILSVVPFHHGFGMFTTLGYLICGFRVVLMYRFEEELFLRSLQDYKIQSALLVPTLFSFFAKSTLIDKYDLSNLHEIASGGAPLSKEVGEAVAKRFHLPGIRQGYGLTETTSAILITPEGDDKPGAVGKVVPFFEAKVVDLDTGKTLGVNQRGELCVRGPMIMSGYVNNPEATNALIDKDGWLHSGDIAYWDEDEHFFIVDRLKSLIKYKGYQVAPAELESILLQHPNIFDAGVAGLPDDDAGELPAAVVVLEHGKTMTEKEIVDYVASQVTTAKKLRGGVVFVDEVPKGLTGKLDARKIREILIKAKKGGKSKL
The test can be described thus: co-sedimentation; sHsp-substrate assemblies isolated on a glycerol gradient, incubated 45 min at room temperature with buffer or with limiting or saturating DnaK/DnaJ/GrpE, then a second 10-60% glycerol gradient; pooled top, middle and bottom fractions by Western blot with IbpA antibodies. The settings on record: both partners purified. On the technique in general: A western blot detects proteins with antibodies after separation by electrophoresis.

For test [2], the target named is T2, C-His-tagged luciferase, aggregated on the BLI sensor (firefly, UniProt P08659 1-550 = luciferase).
T2 construct: firefly luciferase with a C-terminal His tag, used only in the BLI experiments; An anchoring layer was immobilised in 6 M urea on Ni-NTA sensors; A top aggregate layer was then formed at 44°C for 10 min; also called aggregated luciferase; immobilized luciferase aggregates; source: purified (Ni-NTA agarose); not shown: His tag, C-terminal, kept
T2 sequence (P08659 whole entry): as above
The test can be described thus: BLI; aggregated C-His-tagged luciferase immobilised on Ni-NTA sensors (BLItz); 5 μM sHsps (1.66 μM IbpAEc with 3.34 μM IbpBEc for IbpABEc) heat-activated at 44°C for 5 min; room temperature, buffer D (50 mM Tris-HCl pH 7.5, 150 mM KCl, 20 mM Mg acetate, 2 mM DTT); 10 min binding, 1 h dissociation in buffer. The settings on record: both partners purified. (In BLI a coated tip is dipped into the sample, and binding shifts an interference pattern.)

B1: IbpA from Escherichia coli (natural protein, E. coli, UniProt P0C054 1-137, looked up)
chain: MRNFDLSPLYRSAIGFDRLFNHLENNQSQSNGGYPPYNVELVDENHYRIAIAVAGFAESELEITAQDNLLVVKGAHADEQKERTYLYQGIAERNFERKFQLAENIHVRGANLVNGLLYIDLERVIPEAKKPRRIEIN
notes: small heat shock protein IbpA, E. coli; Forms large undefined oligomers; also called IbpAEc; source: purified as described previously [23]
For B1, the binding result in test [1] and in test [2] was “binds” in each case.

B2: IbpABEc (IbpAEc and IbpBEc used together, two-sHsp system of E. coli) (complex)
chain 1: B1 chain
chain 2: MRNFDLSPLMRQWIGFDKLANALQNAGESQSFPPYNIEKSDDNHYRITLALAGFRQEDLEIQLEGTRLSVKGTPEQPKEEKKWLHQGLMNQPFSLSFTLAENMEVSGATFVNGLLHIDLIRNEPEPIAAQRIAISERPALNS
notes: small heat shock protein IbpA, E. coli; as m1; small heat shock protein IbpB, E. coli; as m2; source: the two purified proteins (as described previously [23]) mixed at about 1:2
As for B2, the binding result in test [1] and in test [2] was “binds” throughout.
